The supplement of paper PMC9732359
± gives the uncertainty stated by the source.

Experiment: protein stability index of a GFP-peptide fusion (yeast GPS) (PSI 1-4); higher = more stable; sorted into four equal gates, so the index is relative within each strain
Outline: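 For each peptide, the protein stability index sums the read frequency in every gate after multiplying it by the gate number. Read frequencies came from plasmids that were PCR-amplified from each gate and Illumina-sequenced, with reads assigned to strains by barcodes. The gates were four equal bins of GFP/Cherry fluorescence ratio applied to mid-log yeast in leucine-free medium carrying a pooled library of tiled 17-residue yeast protein peptides fused downstream of GFP on a Cherry-expressing plasmid.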

Row | Sequence | protein stability index (doa10∆) | protein stability index (pdr5∆) | protein stability index (san1∆) | protein stability index (ubr1∆)
1 | SFTQGELNDLKWGRNQP [YMR129W/POM152] | 3.04 ± 0.15 | 2.84 ± 0.09 | 3.14 ± 0.091 | 2.78 ± 0.074
2 | PLSLTHRDKNKMDMICR [DIS3] | 3.24 ± 0.13 | 3.43 ± 0.16 | 3.23 ± 0.13 | 3.16 ± 0.18
3 | STSKFESQYPIVTEQPS [SWP82] | 2.41 ± 0.041 | 2.58 ± 0.046 | 2.41 ± 0.054 | 2.5 ± 0.04
4 | VFYRGMTMQVAVPRDEL [FAS1] | 1.62 ± 0.056 | 1.86 ± 0.066 | 2 ± 0.072 | 1.97 ± 0.12
5 | KELQQLQKQILTVENKL [SMC1] | 1.74 ± 0.081 | 1.99 ± 0.063 | 1.98 ± 0.091 | 2.18 ± 0.09
6 | ECENEIKTKQMSLKKCQ [SMC2] | 2.92 ± 0.25 | 3.28 ± 0.1 | 3.22 ± 0.076 | 3.32 ± 0.058
7 | VSLPEGSFKRVKPQYDE [BRR2] | 3.16 ± 0.15 | 3.09 ± 0.12 | 3.13 ± 0.11 | 2.95 ± 0.14
8 | NFRTMQQQQMQQQQQQQ [SSN2] |  | 3.15 ± 0.23 | 2.37 ± 0.12 | 
9 | MPPKKSWRNITNLSGGE [SMC4] | 2.69 ± 0.12 | 2.85 ± 0.14 | 2.64 ± 0.12 | 2.96 ± 0.1
10 | SKVVDDMPSLRLIDLSG [GRR1] | 2.8 ± 0.076 | 2.91 ± 0.081 | 2.72 ± 0.056 | 2.71 ± 0.078
11 | HARGGGAISAVAATNTP [SRP54] | 1.69 ± 0.12 | 2.35 ± 0.12 | 3.07 ± 0.12 | 2.3 ± 0.12
12 | SATVKTSDLLGSHLSET [ECM29] | 2.67 ± 0.071 | 2.98 ± 0.085 | 2.94 ± 0.095 | 2.86 ± 0.076
13 | YDEDPYGFEDESAPITA [RPB2] | 3.05 ± 0.071 | 3.18 ± 0.054 | 3.24 ± 0.048 | 3.17 ± 0.065
14 | KSDTVTSASQPFKFGKT [YOR098C/NUP1] | 2.34 ± 0.081 | 1.71 ± 0.069 | 1.62 ± 0.12 | 1.97 ± 0.052
15 | QPVNFNRSWDHAYNITF [RPO31] | 2.13 ± 0.12 | 2.37 ± 0.055 | 2.39 ± 0.12 | 2.45 ± 0.047
16 | NSNSNQQSTDADEDDED [RPT1] | 2.32 ± 0.095 | 2.34 ± 0.093 | 2.46 ± 0.091 | 2.37 ± 0.061
17 | RYNRAVPDSKIRIYDLG [RPL10] | 2.53 ± 0.092 | 3.04 ± 0.15 | 1.89 ± 0.19 | 2.55 ± 0.1
18 | DAIAVTKGHGFEGVTHR [RPL3] | 3.06 ± 0.11 | 3.19 ± 0.11 | 3.37 ± 0.1 | 3.36 ± 0.077
19 | VLPDADVKLLHSQFMKD [YJL039C/NUP192] |  | 2.21 ± 0.12 |  | 2.27 ± 0.25
20 | MLWNLAAKKAMYTLSAQ [ASC1] | 2.79 ± 0.069 | 2.45 ± 0.062 | 2.06 ± 0.073 | 2.18 ± 0.077
21 | LQKALTVKTNDELMVIY [RPN8] | 2.33 ± 0.11 | 1.89 ± 0.067 | 1.84 ± 0.13 | 2.65 ± 0.061
22 | YGGDGLDPLEMEGNAQP [RPO31] | 3.39 ± 0.081 | 3.43 ± 0.09 | 3.28 ± 0.07 | 3.29 ± 0.089
23 | LEGTRVSLEERTKNLVS [SMC4] | 3.45 ± 0.09 | 3.42 ± 0.075 | 3.34 ± 0.048 | 3.35 ± 0.08
24 | VVIDAKDHLLGRLASTI [RPL16B] | 1.33 ± 0.066 | 1.25 ± 0.07 | 1.17 ± 0.12 | 1.35 ± 0.078
25 | YSNSHQMAVHIATDGGR [RET1] | 1.98 ± 0.071 | 2.95 ± 0.086 | 2.35 ± 0.13 | 2.73 ± 0.057
26 | MHALKNRSEQNGQEQQG [RGR1] |  | 3.06 ± 0.21 |  | 3.06 ± 0.21
27 | HLRKLLDGELDFDDFLK [RET1] | 3.04 ± 0.16 | 2.95 ± 0.1 | 2.81 ± 0.12 | 2.99 ± 0.092

Row | Sequence | protein stability index (doa10∆) | protein stability index (pdr5∆) | protein stability index (san1∆) | protein stability index (ubr1∆)
28 | RSWNEPSKSQTNFKEEI [YML103C/NUP188] | 2.9 ± 0.12 | 2.98 ± 0.13 | 3.17 ± 0.12 | 3.11 ± 0.075
29 | RMLEEAIDHLKAELEKQ [YIL149C/MLP2] | 3.25 ± 0.056 | 3.21 ± 0.063 | 3.32 ± 0.073 | 3.12 ± 0.053
30 | RRIPKRMRNRALREMRK [POP1] | 3.26 ± 0.11 | 2.45 ± 0.058 | 3.34 ± 0.078 | 2.88 ± 0.13
31 | SRFSPEKLAVSALEQAI [YGL100W/SEH1] | 2.19 ± 0.098 | 2.36 ± 0.12 | 1.9 ± 0.077 | 2.42 ± 0.13
32 | STIITKAINQELEDVAV [YCS4] | 2.96 ± 0.23 | 3.22 ± 0.11 | 2.72 ± 0.057 | 3.04 ± 0.061
33 | ECPLDPGGYFIVNGTEK [RET1] | 3.18 ± 0.12 | 3.34 ± 0.095 | 3.26 ± 0.088 | 3.29 ± 0.082
34 | KKLDYVLALKVEDFLER [RPS9A] | 1.76 ± 0.092 | 2.73 ± 0.079 | 2.08 ± 0.067 | 2.72 ± 0.072
35 | FEGTPPFSLTYVRTEET [YMR129W/POM152] | 2.31 ± 0.052 | 2.63 ± 0.056 | 2.54 ± 0.059 | 2.6 ± 0.041
36 | ARVTGGMKVKADRDESS [RPS14B] | 2.5 ± 0.072 | 2.92 ± 0.067 | 3.12 ± 0.05 | 3.03 ± 0.043
37 | DRSKLKKGVRVTLDITT [RPT4] |  | 2.87 ± 0.2 | 2.4 ± 0.089 | 2.57 ± 0.14
38 | FFLGYMINRLLLCALDR [RPB2] | 1.51 ± 0.17 |  |  | 1.68 ± 0.12
39 | TFEKHDRVEDICERIFE [RRI2] | 2.68 ± 0.12 | 3.05 ± 0.16 | 3.15 ± 0.23 | 
40 | CYAPRPSAGPHKLRESL [RPS4A] | 2.78 ± 0.083 | 3.12 ± 0.091 | 2.87 ± 0.11 | 3.07 ± 0.072
41 | SENQRQIFCVFSGKGVH [GRR1] | 2.94 ± 0.073 | 2.5 ± 0.065 | 2.62 ± 0.053 | 2.76 ± 0.046
42 | LKTVLHNGRDKIQFHIH [RGR1] | 1.49 ± 0.047 | 1.49 ± 0.05 | 1.41 ± 0.074 | 1.39 ± 0.048
43 | NPFEDDMDGVDFNQAFE [BRN1] | 3.31 ± 0.05 | 3.21 ± 0.064 | 3.39 ± 0.038 | 3.3 ± 0.049
44 | FDENIARDIISHNFQNA [PCI8] | 2.74 ± 0.053 | 2.77 ± 0.046 | 2.67 ± 0.043 | 2.77 ± 0.039
45 | PKSASNTSSKRQKKKPT [IRR1] | 2.78 ± 0.069 | 2.61 ± 0.072 | 2.65 ± 0.049 | 2.96 ± 0.072
46 | ALIFIFFAYFIGWCKED [YJL039C/NUP192] | 1.84 ± 0.088 | 1.54 ± 0.062 | 2.03 ± 0.093 | 1.88 ± 0.062
47 | RRLDALVEKVYARFKND [ITC1] | 3.29 ± 0.16 | 1.93 ± 0.083 | 2.69 ± 0.078 | 2.29 ± 0.097
48 | KTQQNEKSENGENDDDT [RPN3] | 3.04 ± 0.19 | 3.41 ± 0.18 | 2.92 ± 0.13 | 3.34 ± 0.11
49 | MMMQQQLKNVQLDSYLV [MED2] | 2.21 ± 0.037 | 2.45 ± 0.061 | 1.69 ± 0.079 | 2.17 ± 0.032
50 | IMELPGVYSDDELLSQL [SRP68] | 2.99 ± 0.065 | 3.13 ± 0.056 | 3.22 ± 0.045 | 3.05 ± 0.07
51 | LLKDIFANNLKSAISNN [SIR4] | 2.46 ± 0.044 | 2.48 ± 0.042 | 2.44 ± 0.043 | 2.44 ± 0.037
52 | SSDDRVKVLAATNRVDV [RPT5] | 2.66 ± 0.18 | 2.95 ± 0.26 | 2.88 ± 0.15 | 
53 | GKRQVLIRPSSKVIIKF [RPS22A] | 3.04 ± 0.068 | 2.4 ± 0.046 | 2.78 ± 0.057 | 2.95 ± 0.042
